# Biological target: human TMEM106B (human, UniProt Q9NUM4 2-274)
# Assay: cell-based or functional assay
# Also: test concentration or dose not given here.
row,Binder,% Protection from CPE
1,"TM-25 (antibody, V domains shown) VH: EVQLVESGGDLVKPGGSLRLSCAASGFTFSGYGMSWIRQTPDKRLEWVATISSGGRYTVYPDSVKGRFTMSRDNVKNTLYLQMSSLKSEDTALYYCARDNFYSYAMDYWGLGTSVTVSA VL: DIVMTQAAFSNPVTLGTSASISCRSSKSLLHSNGITYLFWYLQKPGQSPQLLIYQMSNLASGVPDRFSSSGSGTDFTLRISRVEAEDVGVYYCAQNLELWTFGGGTKLEIK",106%
2,"TM-10 (antibody, V domains shown) VH: QVQLQQSGAELVKPGASVKISCKGSGYAFSSYWMNWVKQRPGKGLEWIGQIYPGDGDTNYNGKFKGKATLTADKSSTTAYIHLSSLTSEDSAVYFCARWGHYDEAMDDWGQGTSVTVSS VL: DVVMTQTPLSLPVSLGDQASISCRSSQSLVHSNGKTYLHWYVQKPGQSPKLLIYKISNRFSGVPDRFSGSGSGTDFTLKISRVEAEDLGVYFCSQITHVPWTFGGGTKLESK",93.3%
3,"TM-72 (antibody, V domains shown) VH: QVQLQQPGAELVKPGTSVKLSCKASGSTFTNYWMHWVMQRPGQGLEWIGNIDPSDSDTHYNQKFKDRAKLTVDKSSSTAYMQLSGLTSEDSAVYYCARSRGGYYDYGEAMDYWGQGTSVTVSS VL: DIVMTQAAPSVPVTPGESVSISCRSSKSLLHTNGNTYLFWFIQRPGQSPHLLIYRKSNLASGVPDRFSGSGSGTAFTLRISRVEAEDVGVYYCMQHLEYPFTFGSGTKLEIK",92.7%
4,"TM-78 (antibody, V domains shown) VH: QVQLQQPGAELVKPGASVKLSCKASGYTFTNHWMHWVRQRPGQGLEWIGNIDPSDSDTHYNHKFKDKATLIVDKSSSTAYLQLSSLTSEDSAVFYCARSRGGYYDYGEAMDYWGQGTSVTVSS VL: DIVMTQATPSIPVTPGESVSISCRSSKSLLHVNGNTYLFWFLQRPGQSPQLLIYRMSNLASGVPDRFSGSGSGTAFTLRISRVEAEDVGVYYCMQHLEYPFTFGSGTKLEIK",91.1%
5,"TM-61 (antibody, V domains shown) VH: QVQLQQSGAELAKPGASVKLSCKASGYTFTNYWMNWVKQRPGQGLEWIGYINPSSDYTKYNQNFKDKATLTADKSSSTAYMQLNSLTYEDSAVYYCTRWGGSRSYWYFDVWGAGTTVTVSS VL: DIVMTQSPSSLSASAGEKVTMSCKSSQSLLNSGNQKNYLAWYQQKPGQSPKLLIYGASTRESGVPDRFTGSGSGTDFTLTISSVQAEDLAVYYCQNDSNYPFTFGGGTKLEMK",94.1%
6,"TM-45 (antibody, V domains shown) VH: QVQLQQSGAELAKPGASVKLSCKASGYTFTNYWMHWVKKRPGQGLEWIGYINPSSGYTKYNQKFKDKATLTADKSSNTAYMQLSSLTYEDSAVYYCTREGGSISDWYFDVWGTGTTVTVSS VL: DIVMTQAAPSLPVTPGESVSISCRSSKSLLHSNGNTYLYWFLQRPGQSPQLLIYRMSNLASGVPDRFSGSGSGTAFTLRISRVEAEDVGVYYCMQHLEYPYTFGGGTKLEIK",32.6%
7,"TM-86 (antibody, V domains shown) VH: EVQLQQSGPVLVKPGASVKMSCKASGYTFTDYYIHWVKQSHGRSLEWIGVISPYNDNTNYNQKFKGKATLTVDKSSSTAYMELNSLTSEDSAVYYCVRTYYSNYFDYWGQGTTLTVSS VL: DIVMTQSPSSLSVSAGEKVTMSCKSSQSLLNSGNQKNYLAWHQQRPGQPPKLLIYGASTRESGVPDRFTGSGSGTEFTLTISSVQAEDLAVYYCQNDHSYPLTFGAGTKLELK",90.5%
8,"TM-37 (antibody, V domains shown) VH: QVQLQQSGAELAKPGASVKLSCKASGYTFTSYWMHWVKQRPGQGLEWIGYVNPSSGYTKNNQKFKDKVTLTADKSSSTAYMQLSSLTYEDSAVYYCAREGGSISDWYFDVWGTGTTVTVSS VL: DIVMTQAAPSVPVTPGESVSISCRSSKSLLHSNGNTYSYWFLQRPGQSPQLLIYRMSNLASGVPDRFSGSGSGTAFTLRISRVEAEDVGVYYCMQHLEYPYTFGGGTKLEIK",90.2%
9,"TM-59 (antibody, V domains shown) VH: QVQLQQSGAELAKPGASVKLSCKASGYTFISYWMHWVKQRPGQGLEWIGYVNPSSGYTKNNQKFKDKATLTADKSSSTAYMQLSSLTYEDSAVYYCAREGGSISDWYFDVWGTGTTVTVSS VL: DIVMTQAAPSVPVTPGESVSISCRSSKSLLHSNGNTYSYWFLQRPGQSPQLLIYRMSNLASGVPDRFSGSGSGTAFTLRISRVEAEDVGVYYCMQHLEYPYTFGGGTKLEIK",92.3%
10,"TM-21 (antibody, V domains shown) VH: EVQLVESGGGLVKPGGSLKLSCAASGFTFSNYAMSWVRETPEKRLEWVAFISDGGGYIYYADNVKDRFTISRDNAKNNLYLQMRHLKSEDTAMYYCARDGGTGFTYWGQGTLVTVSV VL: DIVMTQAAFSNPVTLGTSASISCRSSKSLLHSNGITYLFWYLQKPGQSPQLLIYQMSNLASGVPDRFSSSGSGTDFTLRISRVEAEDVGVYYCVQNLELPYTFGGGTKLEIK",93.7%
11,"TM-29 (antibody, V domains shown) VH: QVQLRQSGAELVRPGASVKLSCKASGYTFTDYYINWVKQRPGQGLEWIARIYPGSGYTYYNEKFKGKATLTAEGSSNTAYMQLSSLTSEDSAVYFCANHYTNPFAYWGQGTLVTVSA VL: DIVMTQAAFSNPVTLGTSASISCRSSKSLLHYNGITYLYWYLQKPGQSPQLLIYQMSNLASGVPDRFSSSGSGTDFTLRISRVEAEDVGVYYCAQNLELPYTFGGGTKLEIK",92.6%
12,"TM-11 (antibody, V domains shown) VH: QVQLKQSGPGQVQPSQSLSITCTVSGFSLSDYGVHWVRQSPGKGLEWLGVIWNNGNTDYNAAFISRLSINKDNSKSQVFFKMTSLQADDTAIYYCVRSLRPLHFDYWGQGTTVTVSS VL: DIVMTQSPSSLTMSVGQKVTMHCKSSQSLLNSNNLQNYLAWYQQKPGQSPTLLVYFASIRESGVPDRFIGSGSGTDFTLTISSVQAEDLADYFCQQHYNTPFTFGSGTKLEIR",93.9%
13,"TM-24 (antibody, V domains shown) VH: QVQLKQSGPGQVQPSQSLSITCTVSGFSLSDYGVHWVRQSPGKGLEWLGVIWNNGNTDYNAAFISRLSINKDNSKSQVFFKMTSLQADDTAIYYCVRSLRPLHFDYWGQGTTVTVSS VL: DIVMTQSPSSLTMSVGQKVTMNCKSSQSLLNSNNQQNYLAWYQQKPGQSPKLLVYFASIRESGVPDRFIGSGSGTDFTLTINSVQAEDLADYFCQQHYSTPFTFGSGTKLEIR",8.4%
14,"TM-35 (antibody, V domains shown) VH: QVQLQQSGPELVRPGTSVKISCKAPGYTFTRHWMQWVRQRPGQGLEWIGEILPGSNNIYYNEKVKGKATLTVDTSSSTSYMQLSSLTSEDSAVYFCARSLYDYDGVFAYWGQGTLVTVSA VL: DVLMTQIPLSLPVSLGDQASISCRSSQSIVHRNGNTYLEWYLQKPGQSPKLLIYKVSNRFSGVPDRFSGSGSGTDFTLKISRVEAEDLGVYYCFQGSHVPYTFGGGTKLEIK",90.4%
15,"TM-32 (antibody, V domains shown) VH: EVQLQQSGAELVRPGASVRLSCIASGFNIKDYYMYWVKQRPEQGLEWIGRIDPEDGDTEYVPKFQGKATMTADTSSNTAYLQLSSLTSEDIGVYYCTTRTWDLYYAVDNWGQGTSVTVSS VL: DVLMTQTPLSLPVSLGDQASISCRSSQNIVHSNGNTYLEWYLQKPGQSPKLLIDKVSNRFSGVPDRFSGSGSGTDFTLKISRVEAEDLGIYYCFQGSHVPFTFGSGTKLEIK",105%
